Measurements as given in publication doi:10.1101/779520.
Like-named read-outs stand apart in the source and are kept apart here.

Experiments:
[1] = target: otoferlin (mouse (endogenous in inner hair cells)); assay: proximity ligation
[2] = target: otoferlin (mouse (endogenous in inner hair cells)); assay: proximity ligation; remark: listed apart in the source

Sequence of otoferlin (mouse (endogenous in inner hair cells)) (Q9ESF1 whole entry): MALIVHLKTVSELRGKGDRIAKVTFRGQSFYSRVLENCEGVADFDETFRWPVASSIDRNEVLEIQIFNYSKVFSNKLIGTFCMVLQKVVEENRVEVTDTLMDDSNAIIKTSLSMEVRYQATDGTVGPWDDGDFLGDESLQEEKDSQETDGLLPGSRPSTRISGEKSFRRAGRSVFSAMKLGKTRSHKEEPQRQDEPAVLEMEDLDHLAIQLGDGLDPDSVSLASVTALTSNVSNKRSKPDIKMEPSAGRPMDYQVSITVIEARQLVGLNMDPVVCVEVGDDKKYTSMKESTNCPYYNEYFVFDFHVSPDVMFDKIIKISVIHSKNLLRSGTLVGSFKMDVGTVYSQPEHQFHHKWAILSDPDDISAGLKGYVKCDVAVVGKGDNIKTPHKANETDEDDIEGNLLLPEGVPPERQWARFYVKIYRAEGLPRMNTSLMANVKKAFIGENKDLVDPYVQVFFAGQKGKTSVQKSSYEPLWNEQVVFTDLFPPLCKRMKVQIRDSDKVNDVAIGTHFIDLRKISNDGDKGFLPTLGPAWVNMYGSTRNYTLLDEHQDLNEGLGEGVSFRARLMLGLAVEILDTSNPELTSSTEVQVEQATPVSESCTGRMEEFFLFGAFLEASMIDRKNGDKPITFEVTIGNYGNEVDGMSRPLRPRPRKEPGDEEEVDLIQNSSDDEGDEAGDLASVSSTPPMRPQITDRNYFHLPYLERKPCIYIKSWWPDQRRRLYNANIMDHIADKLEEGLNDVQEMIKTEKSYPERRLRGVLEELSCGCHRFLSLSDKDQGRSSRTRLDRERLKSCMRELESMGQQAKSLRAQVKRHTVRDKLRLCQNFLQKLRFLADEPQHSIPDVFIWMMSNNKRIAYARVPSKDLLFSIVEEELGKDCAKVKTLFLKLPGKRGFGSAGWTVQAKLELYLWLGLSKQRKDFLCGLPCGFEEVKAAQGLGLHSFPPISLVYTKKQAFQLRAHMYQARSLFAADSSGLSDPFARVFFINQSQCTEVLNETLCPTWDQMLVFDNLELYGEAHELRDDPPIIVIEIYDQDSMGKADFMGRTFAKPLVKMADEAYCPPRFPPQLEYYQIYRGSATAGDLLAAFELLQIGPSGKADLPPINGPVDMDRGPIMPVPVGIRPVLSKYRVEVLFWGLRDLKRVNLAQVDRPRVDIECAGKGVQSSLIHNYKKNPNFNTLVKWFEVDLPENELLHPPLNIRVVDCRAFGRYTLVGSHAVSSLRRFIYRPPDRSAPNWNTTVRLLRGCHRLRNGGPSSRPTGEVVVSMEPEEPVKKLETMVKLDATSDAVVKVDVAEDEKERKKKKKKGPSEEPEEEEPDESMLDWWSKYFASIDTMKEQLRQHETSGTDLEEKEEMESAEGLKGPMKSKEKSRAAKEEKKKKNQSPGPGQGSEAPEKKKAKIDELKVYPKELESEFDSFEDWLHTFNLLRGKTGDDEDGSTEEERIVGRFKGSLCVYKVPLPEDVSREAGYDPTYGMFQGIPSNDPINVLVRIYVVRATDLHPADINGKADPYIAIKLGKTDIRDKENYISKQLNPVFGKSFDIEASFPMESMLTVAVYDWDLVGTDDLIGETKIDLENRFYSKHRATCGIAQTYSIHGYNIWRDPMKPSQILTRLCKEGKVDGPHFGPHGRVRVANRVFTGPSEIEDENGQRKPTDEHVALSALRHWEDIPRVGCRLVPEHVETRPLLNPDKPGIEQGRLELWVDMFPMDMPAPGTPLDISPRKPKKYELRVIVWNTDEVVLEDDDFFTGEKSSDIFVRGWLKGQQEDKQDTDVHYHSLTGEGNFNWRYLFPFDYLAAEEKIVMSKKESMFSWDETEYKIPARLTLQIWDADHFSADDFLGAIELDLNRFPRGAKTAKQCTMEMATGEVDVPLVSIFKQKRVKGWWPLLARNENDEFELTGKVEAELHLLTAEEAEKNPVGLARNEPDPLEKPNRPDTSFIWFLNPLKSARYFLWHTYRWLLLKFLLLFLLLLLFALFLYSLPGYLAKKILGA

Row | PLA puncta fluorescence intensity per cell, % of rest, PMA 5 min [1] [%] | PLA puncta fluorescence intensity per cell, % of rest, PMA 15 min [1] [%] | PLA puncta fluorescence intensity per cell, % of rest, after 1-min stimulation [1] [%] | PLA puncta fluorescence intensity per cell, % of rest, PMA 5 min [2] [%] | PLA puncta fluorescence intensity per cell, % of rest, PMA 15 min [2] [%] | PLA puncta fluorescence intensity per cell, % of rest, after 1-min stimulation [2] [%] | Molecule
1 | 133 | 149 | 173 | – | – | – | myosin VI (from UniProt Q64331 1-1262) (natural protein)
2 | – | – | 442 | – | – | – | protein kinase C α (from UniProt P20444 1-672) (enzyme)
3 | – | – | – | 175 | 161 | 560 | calbindin-D28k (natural protein) MAESHLQSSLITASQFFEIWLHFDADGSGYLEGKELQNLIQELLQARKKAGLELSPEMKSFVDQYGQRDDGKIGIVELAHVLPTEENFLLLFRCQQLKSCEEFMKTWRKYDTDHSGFIETEELKNFLKDLLEKANKTVDDTKLAEYTDLMLKLFDSNNDGKLELTEMARLLPVQENFLLKFQGIKMCGKEFNKAFELYDQDGNGYIDENELDALLKDLCEKNKQELDINNITTYKKNIMALSDGGKLYRTDLALILSAGDN
